Laboratory results as given in PMC9555795, “Divergent kinase WNG1 is regulated by phosphorylation of an atypical activation sub-domain” (Biochemical Journal, 2022).

Biological target: the molecule itself
Experiment: SAXS; protein diluted from a 305 uM stock in 20 mM HEPES pH 7.5, 100 mM NaCl; DAMMIN envelope, SASREF P2 tetramer model compared with the crystal hexamer

B1: BPK1 (residues 61-377) (domain or fragment)
chain: SVYRIPLADMTFWSWMSYLKELPDIDESRNPILKRLLSGSFLRRDGSTTVNVRVPARELVRLLSLTPEQQREGVSAKVRLINLLDPKYSVYEPYLYREILPKRSPLLLPSLGEYRGAFLTYIFHPLSKGLVGDMLETGRSHPDVQVLAANMVAALKSLHNLGLLHRSIELNSFSVLPDGTVVLGGLDTAAPIGTETRLWVGFFGQETAPEIDRNFLADLALTQGRHTVKSDVYSLGVAFRNLVQLLGNGNIGPEDRGAVRQDHLELLDKLSQKMIEEEPGNRPTIEEIMKDPLFEGLNFEDIEEGKARPFRYKQNRL
notes: BPK1, pseudokinase of the WNG family, Toxoplasma gondii, residues 61-377; Cloned in pET28a with the SUMO tag; Purified on Ni-NTA as for WNG1, so a His tag probably went off with the SUMO tag; The species is stated for the WNG family in general, not for BPK1 by name; also called WNG family pseudokinase; source: Rosetta 2 (DE3) cells, purified (Ni-NTA, ULP1 digestion, anion exchange, SEC)
- stoichiometry N: 4
